Measurements from the supplement of paper PMC10065799, “High-throughput profiling of sequence recognition by tyrosine kinases and SH2 domains using bacterial peptide display” (eLife, 2023).

Experiments:
Fer (mouse) = assay: phosphorylation enrichment, bacterial display (enrichment ratio); higher = better substrate or ligand; peptides without Tyr show the background
Jak2 = Jak2 (UniProt O60674); assay: as above
c-Src = assay: as above
EPHB1 = EPHB1 (UniProt P54762); assay: as above
AncSZ = assay: as above
FGFR3 = FGFR3 (UniProt P22607); assay: as above
FGFR3, sequence (P22607 whole entry, looked up): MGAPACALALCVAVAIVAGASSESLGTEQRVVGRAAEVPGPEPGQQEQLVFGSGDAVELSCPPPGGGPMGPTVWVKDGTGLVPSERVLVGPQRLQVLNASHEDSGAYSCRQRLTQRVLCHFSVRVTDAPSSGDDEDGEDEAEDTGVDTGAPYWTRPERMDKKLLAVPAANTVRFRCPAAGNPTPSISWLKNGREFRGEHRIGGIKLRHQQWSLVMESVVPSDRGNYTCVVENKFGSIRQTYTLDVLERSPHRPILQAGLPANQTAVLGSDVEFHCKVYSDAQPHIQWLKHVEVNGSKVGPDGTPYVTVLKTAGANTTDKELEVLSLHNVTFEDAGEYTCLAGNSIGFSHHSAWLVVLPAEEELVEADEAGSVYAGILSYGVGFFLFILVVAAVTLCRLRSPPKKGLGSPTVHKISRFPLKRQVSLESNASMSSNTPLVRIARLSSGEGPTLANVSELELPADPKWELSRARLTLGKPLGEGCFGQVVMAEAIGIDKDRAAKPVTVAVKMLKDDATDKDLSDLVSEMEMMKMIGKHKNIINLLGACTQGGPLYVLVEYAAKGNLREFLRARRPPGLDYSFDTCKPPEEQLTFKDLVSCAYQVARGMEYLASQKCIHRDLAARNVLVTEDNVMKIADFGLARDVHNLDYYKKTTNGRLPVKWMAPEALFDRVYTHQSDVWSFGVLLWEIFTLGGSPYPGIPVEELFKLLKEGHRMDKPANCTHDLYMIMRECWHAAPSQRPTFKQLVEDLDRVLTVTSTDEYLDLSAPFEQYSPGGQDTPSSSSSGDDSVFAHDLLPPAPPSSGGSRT

FGFR1 = FGFR1 (UniProt P11362); assay: as above
FGFR1, sequence (P11362 whole entry, looked up): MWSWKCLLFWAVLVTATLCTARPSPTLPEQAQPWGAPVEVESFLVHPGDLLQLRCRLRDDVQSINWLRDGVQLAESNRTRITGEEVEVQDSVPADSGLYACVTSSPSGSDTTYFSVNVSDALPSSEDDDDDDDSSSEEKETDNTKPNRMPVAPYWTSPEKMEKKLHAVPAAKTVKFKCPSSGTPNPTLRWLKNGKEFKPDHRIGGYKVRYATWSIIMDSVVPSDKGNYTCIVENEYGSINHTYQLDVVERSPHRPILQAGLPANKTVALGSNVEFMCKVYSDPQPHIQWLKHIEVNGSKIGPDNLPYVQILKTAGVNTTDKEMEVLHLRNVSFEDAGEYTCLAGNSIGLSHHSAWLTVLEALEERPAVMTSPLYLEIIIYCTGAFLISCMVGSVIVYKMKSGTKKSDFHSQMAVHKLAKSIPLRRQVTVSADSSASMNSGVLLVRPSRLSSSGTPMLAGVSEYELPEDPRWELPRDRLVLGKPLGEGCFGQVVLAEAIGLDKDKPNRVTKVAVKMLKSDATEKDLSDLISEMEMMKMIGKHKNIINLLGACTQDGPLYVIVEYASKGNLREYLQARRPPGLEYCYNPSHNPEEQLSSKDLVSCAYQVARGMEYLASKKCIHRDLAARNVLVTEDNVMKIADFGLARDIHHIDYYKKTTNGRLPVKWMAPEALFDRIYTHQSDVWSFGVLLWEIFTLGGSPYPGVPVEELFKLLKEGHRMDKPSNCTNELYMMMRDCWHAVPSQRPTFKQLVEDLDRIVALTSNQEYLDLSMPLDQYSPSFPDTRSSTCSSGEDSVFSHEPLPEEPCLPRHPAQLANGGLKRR

Fyn = Fyn (UniProt P06241); assay: as above
Fyn, sequence (P06241 whole entry, looked up): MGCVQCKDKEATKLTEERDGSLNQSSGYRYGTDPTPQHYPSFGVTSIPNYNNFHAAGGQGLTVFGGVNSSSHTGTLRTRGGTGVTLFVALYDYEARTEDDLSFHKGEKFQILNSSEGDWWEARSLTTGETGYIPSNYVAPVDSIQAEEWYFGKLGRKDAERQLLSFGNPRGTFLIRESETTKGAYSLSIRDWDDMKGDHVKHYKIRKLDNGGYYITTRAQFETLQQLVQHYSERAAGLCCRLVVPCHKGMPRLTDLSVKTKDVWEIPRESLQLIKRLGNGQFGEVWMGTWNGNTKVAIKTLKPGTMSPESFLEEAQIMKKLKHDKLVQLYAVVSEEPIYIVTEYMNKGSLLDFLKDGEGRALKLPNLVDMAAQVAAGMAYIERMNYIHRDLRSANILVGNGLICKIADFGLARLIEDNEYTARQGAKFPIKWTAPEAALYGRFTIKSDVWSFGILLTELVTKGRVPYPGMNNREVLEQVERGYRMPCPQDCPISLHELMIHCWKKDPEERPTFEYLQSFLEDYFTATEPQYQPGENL

MERTK = MERTK (UniProt Q12866); assay: as above
Hck = Hck (UniProt P08631); assay: as above
Hck, sequence (P08631 whole entry, looked up): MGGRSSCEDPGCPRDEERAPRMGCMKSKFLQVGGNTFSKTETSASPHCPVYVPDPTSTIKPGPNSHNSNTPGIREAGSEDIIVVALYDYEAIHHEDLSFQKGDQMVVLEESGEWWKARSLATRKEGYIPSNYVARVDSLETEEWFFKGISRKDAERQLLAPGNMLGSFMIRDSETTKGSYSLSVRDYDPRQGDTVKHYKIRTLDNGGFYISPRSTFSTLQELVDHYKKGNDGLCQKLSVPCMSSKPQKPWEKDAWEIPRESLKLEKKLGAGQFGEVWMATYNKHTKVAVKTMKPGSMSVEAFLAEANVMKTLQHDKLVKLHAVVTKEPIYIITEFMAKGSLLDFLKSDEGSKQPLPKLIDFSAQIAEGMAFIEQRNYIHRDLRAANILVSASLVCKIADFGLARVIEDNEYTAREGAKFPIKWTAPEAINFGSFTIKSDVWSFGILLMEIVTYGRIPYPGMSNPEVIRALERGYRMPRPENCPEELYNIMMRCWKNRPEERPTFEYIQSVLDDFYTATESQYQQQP

c-Abl (mouse) = assay: as above
Fes = Fes (UniProt P07332); assay: as above
EPHB2 = EPHB2 (UniProt P29323); assay: as above
EPHB2, sequence (P29323 whole entry, looked up): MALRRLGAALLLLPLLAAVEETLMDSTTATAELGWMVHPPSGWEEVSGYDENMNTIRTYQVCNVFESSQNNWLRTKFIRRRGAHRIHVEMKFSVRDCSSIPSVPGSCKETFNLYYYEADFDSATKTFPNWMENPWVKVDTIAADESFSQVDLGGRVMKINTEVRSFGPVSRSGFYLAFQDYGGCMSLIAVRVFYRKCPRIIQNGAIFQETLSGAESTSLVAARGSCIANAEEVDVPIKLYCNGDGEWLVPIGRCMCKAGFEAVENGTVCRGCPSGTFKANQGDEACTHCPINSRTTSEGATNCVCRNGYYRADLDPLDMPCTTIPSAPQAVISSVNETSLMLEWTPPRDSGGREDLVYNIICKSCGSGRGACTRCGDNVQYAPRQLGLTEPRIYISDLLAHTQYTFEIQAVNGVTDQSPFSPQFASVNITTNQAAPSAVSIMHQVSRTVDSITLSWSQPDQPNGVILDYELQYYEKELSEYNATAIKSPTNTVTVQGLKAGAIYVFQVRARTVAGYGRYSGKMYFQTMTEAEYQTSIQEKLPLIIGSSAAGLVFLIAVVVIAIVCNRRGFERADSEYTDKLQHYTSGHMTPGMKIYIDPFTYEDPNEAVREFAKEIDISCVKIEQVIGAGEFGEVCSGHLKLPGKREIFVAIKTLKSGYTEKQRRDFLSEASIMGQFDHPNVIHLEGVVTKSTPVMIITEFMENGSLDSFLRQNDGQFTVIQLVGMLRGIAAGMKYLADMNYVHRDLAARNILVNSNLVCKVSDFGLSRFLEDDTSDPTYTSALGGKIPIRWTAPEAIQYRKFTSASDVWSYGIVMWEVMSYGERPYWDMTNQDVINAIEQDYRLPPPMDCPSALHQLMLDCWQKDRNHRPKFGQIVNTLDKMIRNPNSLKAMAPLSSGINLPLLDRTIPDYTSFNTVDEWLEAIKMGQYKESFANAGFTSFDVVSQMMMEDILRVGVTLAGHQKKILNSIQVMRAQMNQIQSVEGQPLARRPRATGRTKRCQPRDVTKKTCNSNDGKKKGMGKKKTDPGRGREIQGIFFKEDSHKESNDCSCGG

c-Src SH2 = assay: SH2 binding enrichment of the phosphorylated peptide, bacterial display (enrichment ratio); higher = better substrate or ligand; peptides without Tyr show the background
Grb2 SH2 = Grb2 SH2 (UniProt P62993); assay: as above
Grb2 SH2, sequence (P62993 whole entry, looked up): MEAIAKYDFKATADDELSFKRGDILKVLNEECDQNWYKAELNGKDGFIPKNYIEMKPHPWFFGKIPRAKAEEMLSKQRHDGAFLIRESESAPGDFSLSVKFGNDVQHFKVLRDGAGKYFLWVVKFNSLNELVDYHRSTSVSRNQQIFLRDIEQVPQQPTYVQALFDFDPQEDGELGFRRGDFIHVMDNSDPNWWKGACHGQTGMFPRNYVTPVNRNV

SHP2-C SH2 = assay: as above
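For SH2 binding enrichment of the phosphorylated peptide, bacterial display in this document: peptide library displayed on the E. coli surface as eCPX fusions, selected cells deep-sequenced, score is each peptide's frequency after selection divided by its frequency in the input.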
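For phosphorylation enrichment, bacterial display in this document: 11-residue human phosphosite peptides and single-mutation variants displayed on the E. coli surface, counted by deep sequencing, each peptide's frequency after selection divided by its frequency in the unselected input library; frequency after pTyr selection over input frequency; kinase dosed for 20-30% of maximal phosphorylation in three min.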

EPHB1, sequence (P54762 whole entry, looked up): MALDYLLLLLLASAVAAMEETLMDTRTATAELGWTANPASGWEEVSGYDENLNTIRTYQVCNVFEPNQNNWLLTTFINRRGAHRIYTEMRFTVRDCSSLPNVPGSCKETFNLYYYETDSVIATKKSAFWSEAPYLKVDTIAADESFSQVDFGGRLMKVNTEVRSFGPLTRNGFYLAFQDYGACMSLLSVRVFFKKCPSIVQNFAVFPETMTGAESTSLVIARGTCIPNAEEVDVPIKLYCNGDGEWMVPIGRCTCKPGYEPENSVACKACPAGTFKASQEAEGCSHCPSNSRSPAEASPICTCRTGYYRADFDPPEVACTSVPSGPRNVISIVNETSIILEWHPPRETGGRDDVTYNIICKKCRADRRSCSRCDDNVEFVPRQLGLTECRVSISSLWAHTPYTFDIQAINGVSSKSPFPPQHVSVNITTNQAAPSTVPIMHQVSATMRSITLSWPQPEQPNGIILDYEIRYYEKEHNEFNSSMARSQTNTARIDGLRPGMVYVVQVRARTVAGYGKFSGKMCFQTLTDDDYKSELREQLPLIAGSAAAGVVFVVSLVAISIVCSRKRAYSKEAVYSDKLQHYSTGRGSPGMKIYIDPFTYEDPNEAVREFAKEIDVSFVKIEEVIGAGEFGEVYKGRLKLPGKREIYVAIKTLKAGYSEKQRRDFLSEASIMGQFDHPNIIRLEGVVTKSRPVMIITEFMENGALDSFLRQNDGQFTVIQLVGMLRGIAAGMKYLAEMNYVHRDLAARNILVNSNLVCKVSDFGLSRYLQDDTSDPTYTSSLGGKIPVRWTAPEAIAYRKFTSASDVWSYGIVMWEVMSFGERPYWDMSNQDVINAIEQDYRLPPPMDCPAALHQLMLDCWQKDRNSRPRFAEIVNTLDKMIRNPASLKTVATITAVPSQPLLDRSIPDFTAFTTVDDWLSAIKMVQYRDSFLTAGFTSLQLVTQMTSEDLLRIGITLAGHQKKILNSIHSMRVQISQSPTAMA

Sequence	phosphorylation enrichment (Fer (mouse))	phosphorylation enrichment (Jak2)	phosphorylation enrichment (c-Src)	phosphorylation enrichment (EPHB1)	phosphorylation enrichment (AncSZ)	phosphorylation enrichment (FGFR3)	phosphorylation enrichment (FGFR1)	phosphorylation enrichment (Fyn)	phosphorylation enrichment (MERTK)	phosphorylation enrichment (Hck)	phosphorylation enrichment (c-Abl (mouse))	phosphorylation enrichment (Fes)	phosphorylation enrichment (EPHB2)	SH2 binding enrichment (c-Src SH2)	SH2 binding enrichment (Grb2 SH2)	SH2 binding enrichment (SHP2-C SH2)
LITTPYIGFLG [KCNQ1_Y267_L266P]	0.667	0.983	1.35	0.449	0.834	0.641	0.616	0.782	0.554	0.473	0.528	1.35	0.5	0.492	0.781	2.18
PMWHPYKVDVT [TP53TG5_Y255]	0.611	0.643	2.06	0.753	1.09	0.872	0.561	1.3	0.398	0.5	0.433	1.27	0.54	0.436	0.525	0.487
KKYPDYIQIAM [SGMS2_Y59]	0.52	1.46	0.483	10	1.45	5.93	9.52	0.448	0.435	0.581	0.729	0.949	1.69	0.644	1.04	0.787
AGLEEYSAMRD [HRAS_Y64_Q61L]	0.495	0.837	0.484	0.568	0.952	0.666	0.52	0.45	0.429	0.523	0.636	0.997	0.585	0.572	0.821	0.693
SPFMLYQFLKQ [RPAP3_Y567_D564Y_YF]	3.37	1.07	0.867	4.55	1.15	0.99	1.14	0.621	4.11	4.2	0.938	1.34	2.73	1.07	1.41	1.67
DHAGMYGLGDR [MAPT_Y18_T17M]	0.388	0.45	0.454	0.348	0.556	0.393	0.391	0.523	0.371	0.471	0.411	0.558	0.541	0.44	0.791	0.472
LPKEQYLYTKE [AFG3L2_Y614]	0.75	1.41	0.913	0.895	1.3	0.998	0.789	0.634	0.792	0.767	1.48	1.42	0.574	0.597	0.75	0.643
MSNFACVKREV [SCN1A_Y1694_Y1694C]	0.437	0.674	0.446	0.49	0.768	0.592	0.486	0.449	0.383	0.51	0.506	0.911	0.45	0.514	0.88	0.612
IVAEYYDNLPH [DEGS1_Y284_A280V]	1.37	1.53	0.958	1.09	1.9	6.4	9.37	0.682	1.51	3.07	1.25	1.38	0.924	1.5	0.934	0.574
EKKKFYDTKIE [CASP5_Y104_YF]	0.446	0.883	0.6	0.396	0.772	0.567	0.342	0.353	0.428	0.503	0.653	0.933	0.397	0.427	0.636	0.437
ATDLAYYLVRE [ASL_Y375_K380E]	0.43	2.38	1.46	0.675	1.21	6.9	8.49	0.929	1.23	1.01	0.527	0.909	0.476	1.58	1.08	3.3
EHTTLYSDNST [KANSL1_Y223_N225D]	0.661	0.654	0.497	0.45	0.697	0.591	0.475	0.407	0.443	0.561	0.512	0.801	0.433	0.585	0.949	0.723
GEPLSHTRFSL [TFRC_Y20_Y20H]	0.448	0.742	0.456	0.449	0.599	0.435	0.424	0.398	0.424	0.478	0.637	0.828	0.36	0.487	0.866	0.641
PYYASYPPSPD [GDAP2_Y491_T489A]	0.915	1.25	7.56	10.8	1.41	3.53	4.96	10.7	11.2	4.78	4.3	1.15	17.7	1	0.709	0.579
AVSHRYDLGGL [QPRT_Y162_A158V]	0.344	0.467	0.385	0.403	0.515	0.42	0.347	0.337	0.379	0.415	0.379	0.527	0.524	0.6	0.849	0.76
RNFVRYVQGLK [VWF_Y1400]	0.309	0.556	0.566	0.324	0.277	0.445	0.255	0.511	0.48	0.339	0.548	0.599	0.37	0.586	0.669	0.839
RRVLVYVGRGA [QDPR_Y16_G17V]	0.85	1.03	0.788	0.63	1.1	0.648	0.797	0.716	0.762	0.506	0.798	0.799	0.858	0.414	0.657	0.818

Sequence	phosphorylation enrichment (Fer (mouse))	phosphorylation enrichment (Jak2)	phosphorylation enrichment (c-Src)	phosphorylation enrichment (EPHB1)	phosphorylation enrichment (AncSZ)	phosphorylation enrichment (FGFR3)	phosphorylation enrichment (FGFR1)	phosphorylation enrichment (Fyn)	phosphorylation enrichment (MERTK)	phosphorylation enrichment (Hck)	phosphorylation enrichment (c-Abl (mouse))	phosphorylation enrichment (Fes)	phosphorylation enrichment (EPHB2)	SH2 binding enrichment (c-Src SH2)	SH2 binding enrichment (Grb2 SH2)	SH2 binding enrichment (SHP2-C SH2)
TEAEPYFCSLR [NPHS1_Y1138_R1140C_YF]	0.466	1.51	0.932	0.565	1.11	0.698	0.551	0.544	0.48	0.576	0.814	1.22	0.615	0.638	0.848	0.647
LFDPDYMKVIL [CYP4A22_Y104_YF]	1.2	1.23	0.675	1.42	1.76	1.44	1.5	0.675	0.502	0.759	0.958	4.91	1.43	0.392	0.775	0.564
STQAHYRLSAF [ADAMTS9_Y100_S96T]	0.386	0.487	0.323	0.395	0.582	0.536	0.44	0.461	0.409	0.456	0.427	0.63	0.381	0.513	0.759	0.859
CPFNLYAAQLS [HGD_Y40_E42A_YF]	0.76	1.02	0.961	1.79	1.2	0.816	0.573	0.648	1.7	1.09	0.874	1.29	1.24	0.537	0.726	0.811
VLTSKYCGGGG [HBA1_Y141_R142C]	0.394	0.634	0.354	0.474	0.603	0.577	0.384	0.429	0.391	0.467	0.747	0.772	0.419	0.545	0.884	0.804
RAIDMYLMGCF [GABRB2_Y308_K303R]	0.799	1.83	1.29	0.848	1.87	1.19	0.777	0.907	0.601	0.888	1.58	1.79	0.706	0.332	0.886	0.572
PVQAAYQKVEA [HBB_Y131_V135E]	0.676	1.16	0.587	0.54	0.921	0.525	0.709	0.597	0.604	0.653	0.879	0.887	0.559	1.05	1.02	0.733
NLDRFYQQVTK [SEC16A_Y1041]	0.621	0.639	0.498	0.516	0.734	0.574	0.45	0.43	0.58	0.599	0.587	0.766	0.531	2.6	0.862	0.628
MKKQKYGRIIM [HSD17B4_Y143]	0.565	0.998	0.422	0.551	0.497	0.971	0.517	0.443	0.499	0.396	0.771	0.89	0.531	1.54	1.91	1.55
HQPGEYIFHAE [FLT3_Y416]	0.795	1.29	0.852	0.887	1.77	1.28	0.819	0.915	0.74	1.21	1.11	1.29	1.12	0.445	0.668	0.743
EFISENCGEII [EZH2_Y641_Y641N]	0.478	1.13	0.423	0.585	1.31	0.706	0.487	0.581	0.437	0.495	0.71	1.1	0.57	0.62	1.05	0.714
GHEYIYVDRMQ [PDGFRB_Y581_P584R]	0.472	0.644	2.62	0.796	0.891	3.24	5.2	1.94	0.48	1.44	0.607	0.695	0.546	0.746	0.878	0.859
PESTLYRKFTT [NTRK1_Y701_I699T]	0.448	0.812	0.467	0.433	1.01	0.644	0.646	0.347	0.399	0.608	1.12	0.83	0.275	0.444	0.879	0.538
GMKIVYVFVKK [DNAI2_Y5_E2K_YF]	0.416	1	0.394	0.59	1.2	0.706	0.433	0.463	1.06	0.428	0.863	1.14	0.538	0.677	1.18	1.21
VECRVYAEDPF [PCCA_Y401_YF]	0.669	1.6	0.693	0.766	1.43	0.845	0.495	0.553	0.481	0.578	1.11	1.68	0.677	0.54	0.674	0.426
MSRDVYSTDCF [NTRK2_Y702_Y706C_YF]	0.516	0.855	2.4	0.754	1	0.803	0.64	2.71	3.02	1.14	0.874	1.2	0.675	0.757	0.894	0.683
